Molecular target: Savinase® (subtilisin 309) (UniProt P29600)
Assay: cell-based or functional assay

Chain of UniProt P29600 (P29600 whole entry): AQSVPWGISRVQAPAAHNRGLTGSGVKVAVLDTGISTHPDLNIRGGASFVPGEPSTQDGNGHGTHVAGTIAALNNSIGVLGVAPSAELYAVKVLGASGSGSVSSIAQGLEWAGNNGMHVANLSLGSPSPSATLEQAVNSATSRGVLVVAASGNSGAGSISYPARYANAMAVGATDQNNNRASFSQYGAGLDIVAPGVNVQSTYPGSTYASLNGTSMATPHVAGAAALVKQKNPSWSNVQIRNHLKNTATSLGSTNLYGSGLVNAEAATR

RA (%) (Residual Activity, Ovo-inhibition Assay; hydrolysis of Suc-Ala-Ala-Pro-Phe-pNA with and without inhibitor): < 5%
Substance: trypsin inhibitor type IV-0 (Ovo-inhibitor), Sigma T-1886 (from UniProt P10184 69-517)
